pKd, pKi: −log10 of the molar value. Like-named read-outs stand apart in the source and are kept apart here.

These results are taken from PMC3285612.

The target in assay [1] is recombinant Simukunin (rSV-66) (Simulium vittatum) (UniProt B5M0W4). Briefly: SPR; kinetics: rSimukunin immobilised on a CM5 chip by amine coupling (475.3 RU); FXa 3.1-50 nM or elastase 0.45-3.75 nM injected for 180 s at 30 µl/minute, 25°C; HBS-P (10 mM Hepes pH 7.4, 150 mM NaCl, 0.005% P20); global fit to a 1:1 Langmuir model. (In general: SPR reads the build-up and loss of mass on a sensor chip optically.)
Chain of recombinant Simukunin (rSV-66) (Simulium vittatum) (B5M0W4 20-102): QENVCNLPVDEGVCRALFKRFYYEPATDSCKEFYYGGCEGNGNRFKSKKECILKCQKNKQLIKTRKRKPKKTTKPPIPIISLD

For assay [2], the target named is thrombin (UniProt P00734). Particulars: cited from earlier work.
For assay [3], the target named is Factor X (FX) (Homo sapiens) (UniProt P00742). The note with it: cited from earlier work.
Chain of Factor X (FX) (Homo sapiens) (P00742 41-179, chain 1 of 2): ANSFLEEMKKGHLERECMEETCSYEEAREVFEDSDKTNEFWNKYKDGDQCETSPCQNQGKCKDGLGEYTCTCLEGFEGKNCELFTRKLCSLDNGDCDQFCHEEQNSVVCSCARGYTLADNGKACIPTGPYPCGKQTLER
Chain of Factor X (FX) (Homo sapiens) (P00742 183-488, chain 2 of 2): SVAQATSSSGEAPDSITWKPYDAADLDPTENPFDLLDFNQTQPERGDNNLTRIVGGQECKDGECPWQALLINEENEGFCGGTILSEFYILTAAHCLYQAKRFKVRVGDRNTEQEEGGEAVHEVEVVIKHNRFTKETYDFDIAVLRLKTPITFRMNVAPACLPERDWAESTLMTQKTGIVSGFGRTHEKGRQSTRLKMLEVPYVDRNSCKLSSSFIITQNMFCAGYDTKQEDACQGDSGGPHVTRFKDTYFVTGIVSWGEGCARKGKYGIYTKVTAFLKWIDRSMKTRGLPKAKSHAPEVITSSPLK
The target of assay [4] is Factor X (Homo sapiens) (UniProt P00742). The note with it: cited from earlier work.
Chain of Factor X (Homo sapiens) (P00742 41-179): as the sequence (P00742 41-179, chain 1 of 2) above
Assay [5] deals with Factor Xa (Homo sapiens) (UniProt P00742). The note with it: cited from earlier work.
Chain of Factor Xa (Homo sapiens) (P00742 235-488): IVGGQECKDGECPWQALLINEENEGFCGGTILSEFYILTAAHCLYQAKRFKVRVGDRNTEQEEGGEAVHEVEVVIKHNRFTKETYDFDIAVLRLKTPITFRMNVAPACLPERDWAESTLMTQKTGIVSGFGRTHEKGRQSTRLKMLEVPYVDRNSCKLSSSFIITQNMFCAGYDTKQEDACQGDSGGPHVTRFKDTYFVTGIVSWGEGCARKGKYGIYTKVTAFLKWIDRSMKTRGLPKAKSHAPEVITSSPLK
Assay [6] deals with Factor Xa (FXa) (Homo sapiens) (UniProt P00742). The note with it: cited from earlier work.
Chain of Factor Xa (FXa) (Homo sapiens) (P00742 41-179, chain 1 of 2): as the sequence (P00742 41-179, chain 1 of 2) above
Chain of Factor Xa (FXa) (Homo sapiens) (P00742 235-488, chain 2 of 2): as the sequence (P00742 235-488) above
For assay [7], the target named is thrombin (UniProt P00734). The note with it: cited from earlier work. The source holds these as a separate data set.

Chain of ixolaris (Q964Q0 27-165): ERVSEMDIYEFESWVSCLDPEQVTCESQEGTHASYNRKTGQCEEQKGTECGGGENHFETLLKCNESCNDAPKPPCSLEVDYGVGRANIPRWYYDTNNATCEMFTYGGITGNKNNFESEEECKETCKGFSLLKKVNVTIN
Chain of ornithodorin (P56409 whole entry): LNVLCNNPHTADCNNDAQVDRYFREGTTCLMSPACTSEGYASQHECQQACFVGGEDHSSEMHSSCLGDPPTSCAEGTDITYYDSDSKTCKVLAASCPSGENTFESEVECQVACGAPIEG
Chain of amblin (Q5VJG2 16-166): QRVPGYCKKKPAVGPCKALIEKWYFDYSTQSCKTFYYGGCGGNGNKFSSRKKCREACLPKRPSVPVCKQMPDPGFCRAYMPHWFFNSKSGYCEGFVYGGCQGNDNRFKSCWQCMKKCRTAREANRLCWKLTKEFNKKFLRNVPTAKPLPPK

In the case of “activated coagulation factor X (FXa), human (enzyme)”, in assay [1], the negative-log Kd (pKd) – broadly, −log10 of the Kd, conventionally taken in molar units – was 8.51; the off-rate (koff) (commonly a measure of how fast the partners let go of each other) amounted to 0.000303 s⁻¹; the on-rate (kon) (usually the rate constant with which the complex forms) was 98700 M⁻¹ s⁻¹.

Take amblin (from UniProt Q5VJG2): the negative logarithm of the Ki (pKi) – broadly, −log10 of the Ki, conventionally taken in molar units – in assay [2] was 7.70.

ixolaris (from UniProt Q964Q0): the pKd is 9.17 in assay [3], 9.17 in assay [4], 9.60 in assay [5] and 9.60 in assay [6].

As for ornithodorin (from UniProt P56409), the pKi in assay [7] was 12.00.
